# B1: AMOTL2 peptide 64-79 (Angiomotin-like protein 2), 16-mer library wild type / TNKS ANK (TNKS 12 ANK repeats, residues 174-649) (parent complex)
# chain 1: QVLQQATRQEPQGQEH
# chain 2: TGVPAVSGALRELLEACRNGDVSRVKRLVDAANVNAKDMAGRKSSPLHFAAGFGRKDVVEHLLQMGANVHARDDGGLIPLHNACSFGHAEVVSLLLCQGADPNARDNWNYTPLHEAAIKGKIDVCIVLLQHGADPNIRNTDGKSALDLADPSAKAVLTGEYKKDELLEAARSGNEEKLMALLTPLNVNCHASDGRKSTPLHLAAGYNRVRIVQLLLQHGADVHAKDKGGLVPLHNACSYGHYEVTELLLKHGACVNAMDLWQFTPLHEAASKNRVEVCSLLLSHGADPTLVNCHGKSAVDMAPTPELRERLTYEFKGHSLLQAAREADLAKVKKTLALEIINFKQPQSHETALHCAVASLHPKRKQVTELLLRKGANVNEKNKDFMTPLHVAAERAHNDVMEVLHKHGAKMNALDTLGQTALHRAALAGHLQTCRLLLSYGSDPSIISLQGFTAAQMGNEAVQQILSESTPIRTSD
# Variants of: B1
# Assay: proteomic peptide phage display deep mutational scan (ProP-PD DMS): M13 P8 16-mer library selected against immobilised GST-tagged bait for four days (rounds), NGS of the eluted pools per day and pseudo-replica; bait immobilised on MaxiSorp plates (10 µg), library pre-cleared on GST, 2 h binding at 4 °C, five washes; one round per day, days 1-4; value from days 2 and 3
row,Variant,screen value
1,chain 1 Q14W,"0.00254 average fractional NGS count over selection days 2 and 3 (reads of this peptide / all reads for the bait, averaged over …"
2,chain 1 Q14N,"0.00223 average fractional NGS count over selection days 2 and 3 (reads of this peptide / all reads for the bait, averaged over …"
3,chain 1 Q14K,"0.000473 average fractional NGS count over selection days 2 and 3 (reads of this peptide / all reads for the bait, averaged over …"
4,chain 1 Q14I,"0.002 average fractional NGS count over selection days 2 and 3 (reads of this peptide / all reads for the bait, averaged over …"
5,chain 1 Q14L,"0.000371 average fractional NGS count over selection days 2 and 3 (reads of this peptide / all reads for the bait, averaged over …"
6,chain 1 Q14T,"0.00286 average fractional NGS count over selection days 2 and 3 (reads of this peptide / all reads for the bait, averaged over …"
7,chain 1 Q14D,"0.00025 average fractional NGS count over selection days 2 and 3 (reads of this peptide / all reads for the bait, averaged over …"
8,chain 1 Q14H,"0.00069 average fractional NGS count over selection days 2 and 3 (reads of this peptide / all reads for the bait, averaged over …"
9,chain 1 Q14R,"0.0014 average fractional NGS count over selection days 2 and 3 (reads of this peptide / all reads for the bait, averaged over …"
10,chain 1 Q14E,"0.000547 average fractional NGS count over selection days 2 and 3 (reads of this peptide / all reads for the bait, averaged over …"
11,chain 1 Q14S,"0.00613 average fractional NGS count over selection days 2 and 3 (reads of this peptide / all reads for the bait, averaged over …"
12,chain 1 Q9V,"0.000414 average fractional NGS count over selection days 2 and 3 (reads of this peptide / all reads for the bait, averaged over …"
13,chain 1 Q9E,"0.000877 average fractional NGS count over selection days 2 and 3 (reads of this peptide / all reads for the bait, averaged over …"
14,chain 1 Q9A,"0.00163 average fractional NGS count over selection days 2 and 3 (reads of this peptide / all reads for the bait, averaged over …"
15,chain 1 Q9W,"0.000813 average fractional NGS count over selection days 2 and 3 (reads of this peptide / all reads for the bait, averaged over …"
16,chain 1 G13R,"0.000155 average fractional NGS count over selection days 2 and 3 (reads of this peptide / all reads for the bait, averaged over …"
17,chain 1 E10H,"0.000153 average fractional NGS count over selection days 2 and 3 (reads of this peptide / all reads for the bait, averaged over …"
18,chain 1 E10A,"0.00157 average fractional NGS count over selection days 2 and 3 (reads of this peptide / all reads for the bait, averaged over …"
19,chain 1 E10F,"0.000339 average fractional NGS count over selection days 2 and 3 (reads of this peptide / all reads for the bait, averaged over …"
20,chain 1 E10V,"0.000245 average fractional NGS count over selection days 2 and 3 (reads of this peptide / all reads for the bait, averaged over …"
21,chain 1 E10M,"0.00083 average fractional NGS count over selection days 2 and 3 (reads of this peptide / all reads for the bait, averaged over …"
22,chain 1 E10Q,"0.000624 average fractional NGS count over selection days 2 and 3 (reads of this peptide / all reads for the bait, averaged over …"
23,chain 1 Q5V,"0.00207 average fractional NGS count over selection days 2 and 3 (reads of this peptide / all reads for the bait, averaged over …"
24,chain 1 Q5S,"0.00183 average fractional NGS count over selection days 2 and 3 (reads of this peptide / all reads for the bait, averaged over …"
25,chain 1 Q5E,"0.000474 average fractional NGS count over selection days 2 and 3 (reads of this peptide / all reads for the bait, averaged over …"

row,Variant,screen value
1,chain 1 Q5K,"0.000455 average fractional NGS count over selection days 2 and 3 (reads of this peptide / all reads for the bait, averaged over …"
2,chain 1 Q5F,"0.00178 average fractional NGS count over selection days 2 and 3 (reads of this peptide / all reads for the bait, averaged over …"
3,chain 1 V2W,"0.00102 average fractional NGS count over selection days 2 and 3 (reads of this peptide / all reads for the bait, averaged over …"
4,chain 1 V2F,"0.000314 average fractional NGS count over selection days 2 and 3 (reads of this peptide / all reads for the bait, averaged over …"
5,chain 1 V2A,"0.00302 average fractional NGS count over selection days 2 and 3 (reads of this peptide / all reads for the bait, averaged over …"
6,chain 1 V2N,"0.00035 average fractional NGS count over selection days 2 and 3 (reads of this peptide / all reads for the bait, averaged over …"
7,chain 1 V2G,"0.000586 average fractional NGS count over selection days 2 and 3 (reads of this peptide / all reads for the bait, averaged over …"
8,chain 1 V2L,"0.0017 average fractional NGS count over selection days 2 and 3 (reads of this peptide / all reads for the bait, averaged over …"
9,chain 1 V2Q,"0.000414 average fractional NGS count over selection days 2 and 3 (reads of this peptide / all reads for the bait, averaged over …"
10,chain 1 V2P,"0.000487 average fractional NGS count over selection days 2 and 3 (reads of this peptide / all reads for the bait, averaged over …"
11,chain 1 V2H,"0.00146 average fractional NGS count over selection days 2 and 3 (reads of this peptide / all reads for the bait, averaged over …"
12,chain 1 V2Y,"0.000153 average fractional NGS count over selection days 2 and 3 (reads of this peptide / all reads for the bait, averaged over …"
13,chain 1 Q4P,"0.000712 average fractional NGS count over selection days 2 and 3 (reads of this peptide / all reads for the bait, averaged over …"
14,chain 1 Q4H,"0.000314 average fractional NGS count over selection days 2 and 3 (reads of this peptide / all reads for the bait, averaged over …"
15,chain 1 Q4I,"0.0028 average fractional NGS count over selection days 2 and 3 (reads of this peptide / all reads for the bait, averaged over …"
16,chain 1 Q4S,"0.000703 average fractional NGS count over selection days 2 and 3 (reads of this peptide / all reads for the bait, averaged over …"
17,chain 1 Q4D,"0.000668 average fractional NGS count over selection days 2 and 3 (reads of this peptide / all reads for the bait, averaged over …"
18,chain 1 Q4L,"0.000267 average fractional NGS count over selection days 2 and 3 (reads of this peptide / all reads for the bait, averaged over …"
19,chain 1 Q4K,"0.000138 average fractional NGS count over selection days 2 and 3 (reads of this peptide / all reads for the bait, averaged over …"
20,chain 1 Q4N,"0.00124 average fractional NGS count over selection days 2 and 3 (reads of this peptide / all reads for the bait, averaged over …"
21,chain 1 T7P,"0.000581 average fractional NGS count over selection days 2 and 3 (reads of this peptide / all reads for the bait, averaged over …"
22,chain 1 T7A,"0.000494 average fractional NGS count over selection days 2 and 3 (reads of this peptide / all reads for the bait, averaged over …"
23,chain 1 T7E,"0.000563 average fractional NGS count over selection days 2 and 3 (reads of this peptide / all reads for the bait, averaged over …"
24,chain 1 T7L,"0.000808 average fractional NGS count over selection days 2 and 3 (reads of this peptide / all reads for the bait, averaged over …"
25,chain 1 T7M,"0.000455 average fractional NGS count over selection days 2 and 3 (reads of this peptide / all reads for the bait, averaged over …"

row,Variant,screen value
1,chain 1 T7I,"0.000358 average fractional NGS count over selection days 2 and 3 (reads of this peptide / all reads for the bait, averaged over …"
2,chain 1 T7G,"0.00299 average fractional NGS count over selection days 2 and 3 (reads of this peptide / all reads for the bait, averaged over …"
3,chain 1 T7Y,"0.00199 average fractional NGS count over selection days 2 and 3 (reads of this peptide / all reads for the bait, averaged over …"
4,chain 1 T7N,"0.00127 average fractional NGS count over selection days 2 and 3 (reads of this peptide / all reads for the bait, averaged over …"
5,chain 1 T7W,"0.00146 average fractional NGS count over selection days 2 and 3 (reads of this peptide / all reads for the bait, averaged over …"
6,chain 1 T7H,"0.00103 average fractional NGS count over selection days 2 and 3 (reads of this peptide / all reads for the bait, averaged over …"
7,chain 1 H16L,"0.000215 average fractional NGS count over selection days 2 and 3 (reads of this peptide / all reads for the bait, averaged over …"
8,chain 1 H16P,"0.000313 average fractional NGS count over selection days 2 and 3 (reads of this peptide / all reads for the bait, averaged over …"
9,chain 1 H16W,"0.000565 average fractional NGS count over selection days 2 and 3 (reads of this peptide / all reads for the bait, averaged over …"
10,chain 1 H16D,"0.000297 average fractional NGS count over selection days 2 and 3 (reads of this peptide / all reads for the bait, averaged over …"
11,chain 1 H16S,"0.000142 average fractional NGS count over selection days 2 and 3 (reads of this peptide / all reads for the bait, averaged over …"
12,chain 1 H16V,"0.000284 average fractional NGS count over selection days 2 and 3 (reads of this peptide / all reads for the bait, averaged over …"
13,chain 1 R8A,"0.000176 average fractional NGS count over selection days 2 and 3 (reads of this peptide / all reads for the bait, averaged over …"
14,chain 1 Q12N,"0.000885 average fractional NGS count over selection days 2 and 3 (reads of this peptide / all reads for the bait, averaged over …"
15,chain 1 Q12L,"0.00049 average fractional NGS count over selection days 2 and 3 (reads of this peptide / all reads for the bait, averaged over …"
16,chain 1 Q12I,"0.00433 average fractional NGS count over selection days 2 and 3 (reads of this peptide / all reads for the bait, averaged over …"
17,chain 1 Q12Y,"0.0011 average fractional NGS count over selection days 2 and 3 (reads of this peptide / all reads for the bait, averaged over …"
18,chain 1 Q12T,"0.0005 average fractional NGS count over selection days 2 and 3 (reads of this peptide / all reads for the bait, averaged over …"
19,chain 1 Q12S,"0.000155 average fractional NGS count over selection days 2 and 3 (reads of this peptide / all reads for the bait, averaged over …"
20,chain 1 Q12M,"0.00046 average fractional NGS count over selection days 2 and 3 (reads of this peptide / all reads for the bait, averaged over …"
21,chain 1 Q12E,"0.000439 average fractional NGS count over selection days 2 and 3 (reads of this peptide / all reads for the bait, averaged over …"
22,chain 1 Q12D,"0.000551 average fractional NGS count over selection days 2 and 3 (reads of this peptide / all reads for the bait, averaged over …"
23,chain 1 Q12G,"0.000392 average fractional NGS count over selection days 2 and 3 (reads of this peptide / all reads for the bait, averaged over …"
24,chain 1 E15L,"0.00245 average fractional NGS count over selection days 2 and 3 (reads of this peptide / all reads for the bait, averaged over …"
25,chain 1 E15R,"0.00165 average fractional NGS count over selection days 2 and 3 (reads of this peptide / all reads for the bait, averaged over …"

# Reference: PMC12102759 (2025)
